Experimental findings from the supplement of paper PMC10567573 are described below.

This data set in a line: protein stability index of a GFP-peptide fusion (GPS, HEK-293T) (PSI 1-6); higher = more stable. The following applies: c terminus: a fixed tail appended.

± gives the standard deviation.
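Also: 24-mer peptide tiles fused after GFP, lentivirally expressed, FACS-sorted into six equal bins by GFP/DsRed ratio, decoded by Illumina sequencing, PSI is the read-weighted mean bin number.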

As for PVDAEALELHDYHDIIKHPMDLST [BRD3], the protein stability index is, setting by setting: (treatment: DMSO) 4.63 ± 0.34; (treatment: MLN4924 1 uM, 8 h) 4.67 ± 0.32.
On the same counts, the results for PYLRGTIKMMQAVRQAFQDQDDRR [GFOD1] are 3.32 ± 0.17 and 3.56 ± 0.34.
Sequence AEKKKPKTQIVCKHFLEAIENNKY [ZC3H15] registered a protein stability index (treatment: DMSO) of 3.51 ± 0.41 and a protein stability index (treatment: MLN4924 1 uM, 8 h) of 3.63 ± 0.25.
In the case of PECRQVLKTSRKDVKDKETTENEN [CHGB], the protein stability index came out at 5.54 ± 0.3 (treatment: DMSO) and 5.45 ± 0.37 (treatment: MLN4924 1 uM, 8 h).
As to SVSVWDLAAPSLHVKEQLPCAGLN [TLE6], the protein stability index reads like this: (treatment: DMSO) 2.91 ± 0.2; (treatment: MLN4924 1 uM, 8 h) 3.08 ± 0.3.
Consider KPYTCSVCGKSFSRTTCLFLHLRT [ZNF8], for which the protein stability index came to 2.54 ± 0.39 (treatment: DMSO) and 2.89 ± 0.7 (treatment: MLN4924 1 uM, 8 h).
For YREHKSLTGTARYMSINTHLGKEQ [CSNK1G1], the protein stability index is 3.47 ± 0.34 (treatment: DMSO) and 3.27 ± 0.49 (treatment: MLN4924 1 uM, 8 h).
In turn, LKYMEVTLRPTDSQSHCYRTCFSP [PCDHGC5] yielded a protein stability index (treatment: DMSO) of 2.31 ± 0.2 and a protein stability index (treatment: MLN4924 1 uM, 8 h) of 2.25 ± 0.34.
Consider EVRLVQKKDTGHIYAMKILRKSDM [STK38L], for which the protein stability index worked out at 2.65 ± 0.22 (treatment: DMSO) and 2.45 ± 0.29 (treatment: MLN4924 1 uM, 8 h).
Consider RTYRYSNRYCGGPGPPITDCEMNS [DYRK1B], for which the protein stability index runs as follows: (treatment: DMSO) 2.67 ± 0.23; (treatment: MLN4924 1 uM, 8 h) 2.56 ± 0.11.
On the same counts, the results for VLMLLVALLFTGIAVLGIVMLKRI [SCAMP3] are 2.85 ± 0.63 and 3.02 ± 0.73.
On the same counts, the results for GSSDHSVIMWDIGGRKGTAIELQG [WDFY2] are 2.84 ± 0.43 and 2.83 ± 0.2.
Take LYFLFADAMQLNDKWQGLCWPMMD [CMTM3]: the protein stability index by setting is: (treatment: DMSO) 3.07 ± 0.31; (treatment: MLN4924 1 uM, 8 h) 3.05 ± 0.47.
Consider PLGLEADMWSIGVITYILLSGASP [DAPK3], for which the protein stability index reads like this: (treatment: DMSO) 2.52 ± 1.4; (treatment: MLN4924 1 uM, 8 h) 2.27 ± 0.23.
In the case of VYLHFLSVVTEDGPEPKDKGSLPQ [ZNF232], the protein stability index by setting is: (treatment: DMSO) 2.27 ± 0.18; (treatment: MLN4924 1 uM, 8 h) 2.35 ± 0.33.
Take ILKRKWWKYILLGLADVEANYVIV [SLC35F2]: the protein stability index was 2.55 ± 0.5 (treatment: DMSO) and 2.23 ± 0.76 (treatment: MLN4924 1 uM, 8 h).
As for DKQRKANESKGTRESWDSAKKLPP [ELOA2], the protein stability index reads like this: (treatment: DMSO) 5.11 ± 0.19; (treatment: MLN4924 1 uM, 8 h) 5.06 ± 0.19.
On to AKVYVGVKQEIAEMRIPALNAYMK [NCF4], for which the protein stability index worked out at 2.13 ± 0.2 (treatment: DMSO) and 2.32 ± 0.29 (treatment: MLN4924 1 uM, 8 h).
With TSRNLIGGADIIVIKYNVNDKFSF [RHOBTB3], the protein stability index runs as follows: (treatment: DMSO) 2.83 ± 1.2; (treatment: MLN4924 1 uM, 8 h) 2.68 ± 1.6.
Regarding TDRSFNIVDIKPANMEDLTEVITA [PPP2R2C], the protein stability index is, setting by setting: (treatment: DMSO) 4.42 ± 0.14; (treatment: MLN4924 1 uM, 8 h) 4.37 ± 0.15.
For the sequence DVVRSLLRRGASVNRTTRTNSTPL [FEM1A], the protein stability index (treatment: DMSO) is 2.75 ± 0.29 and the protein stability index (treatment: MLN4924 1 uM, 8 h) is 2.65 ± 0.27.
In the case of QVGTMALWASQREKEVLRRERAVE [ZBED2], the protein stability index by setting is: (treatment: DMSO) 4.11 ± 0.26; (treatment: MLN4924 1 uM, 8 h) 4.31 ± 0.18.
On the same counts, the results for ASAQPLPAPEAAHTTGPTGSAPNS [TFE3] are 5.35 ± 0.18 and 5.46 ± 0.15.
For the sequence DHFQKFLPTVGGQLGTAGQGFSYS [MYOZ1], the protein stability index reads like this: (treatment: DMSO) 2.81 ± 0.13; (treatment: MLN4924 1 uM, 8 h) 2.79 ± 0.27.
For QLSHIKAKIRAKIPGTGALASAAA [RTN2], the protein stability index runs as follows: (treatment: DMSO) 3.07 ± 0.21; (treatment: MLN4924 1 uM, 8 h) 3.09 ± 0.41.
On the same counts, the results for RYRGRGSEEYRAPRPQSEESWDEE [CHGB] are 5.28 ± 0.51 and 5.34 ± 0.33.
As to DVALALAALDGGRSLEELTRLAFE [LPCAT4], the protein stability index stood at 2.06 ± 0.68 (treatment: DMSO) and 2.12 ± 0.19 (treatment: MLN4924 1 uM, 8 h).
Consider KCQHYKKKRTEQEETIASLQMEVC [CEP70], for which the protein stability index worked out at 4.008 ± 0.008 (treatment: DMSO) and 4.02 ± 0.56 (treatment: MLN4924 1 uM, 8 h).
For the sequence NCMAEKRETVLIETQLKACASFIR [C8orf76], the protein stability index is 2.23 ± 0.32 (treatment: DMSO) and 2.25 ± 0.45 (treatment: MLN4924 1 uM, 8 h).
On the same counts, the results for FLGHHSFSVRPGTEATISIREDEV [SCNN1D] are 2.42 ± 0.64 and 3.12 ± 0.52.
Turning to SYAHSVEDTHVQIGQVHEEFKQNI [FCHO1], the protein stability index (treatment: DMSO) stood at 4.55 ± 0.25 and the protein stability index (treatment: MLN4924 1 uM, 8 h) is 4.7 ± 0.081.
On the same counts, the results for EEILTLFCGAPPVTPIIVLSIINF [PHTF1] are 2.84 ± 0.26 and 2.97 ± 0.51.
As to SLLPGAVEQPQPQFISRFLEGQSG [NEK8], the protein stability index by setting is: (treatment: DMSO) 3.5 ± 0.18; (treatment: MLN4924 1 uM, 8 h) 3.73 ± 0.16.
In turn, YCFMIAYGTQRTLILESQNWRYAT [FUT8] had a protein stability index (treatment: DMSO) of 3.46 ± 0.51 and a protein stability index (treatment: MLN4924 1 uM, 8 h) of 3.28 ± 0.27.
On the same counts, the results for PISLQATPATPATLSASSSAGGSR [TFE3] are 4.51 ± 0.18 and 4.87 ± 0.11.
For the sequence LIKDAIVSTQPAMMVNLRACSAPG [C2CD2L], the protein stability index is, setting by setting: (treatment: DMSO) 2.82 ± 0.26; (treatment: MLN4924 1 uM, 8 h) 2.54 ± 0.31.
